Experiments:
[1] = biological target: His-tagged FcγRIIa (R&D Systems, cat no. 1330-CD/CF) (UniProt P12318); assay: AlphaScreen or HTRF; competitive: biotinylated human IgG1 (200 ng/mL) on streptavidin donor beads, His-tagged FcγR (200 ng/mL) on nickel chelate acceptor beads, unlabeled competitor antibody in serial dilutions; 1xPBS, 0.05% BSA, 0.01% Tween 20, pH 7.2; RT 1 h; IC50 interpolated at 50% maximal activity
[2] = biological target: His-tagged FcγRIIIa (R&D Systems, cat no. 4325-FC) (UniProt P08637); assay: as above
[3] = biological target: His-tagged FcγRI (R&D Systems, cat no. 1257-FC) (UniProt P12314); assay: as above
[4] = biological target: His-tagged FcγRIIIa (R&D Systems, cat no. 4325-FC) (UniProt P08637)
[5] = biological target: His-tagged FcγRIIIa (R&D Systems, cat no. 4325-FC) (UniProt P08637); remark: listed apart in the source

IC50 [1] [nM]	IC50 [2] [nM]	IC50 [3] [nM]	ADCC against HCC-827 cells with donor PBMCs, EC20 (antibody concentration needed to elicit 20% lysis) [4] [nM]	ADCC against HCC-827 cells with donor PBMCs, Emax (% compared to complete lysis) [4] [%]	ADCC against H1975 cells with donor PBMCs, EC20 (antibody concentration needed to elicit 20% lysis) [5] [nM]	ADCC against H1975 cells with donor PBMCs, Emax (% compared to complete lysis) [5] [%]	Substance
1270	32.4	8.7					IgG1 isotype - NF (antibody)
946	10	9.2	0.0376	31	0.0015	59	JNJ-61186372 - LF (EGFR x c-Met bispecific antibody, low fucose)
1080	38.1	11.6	0.645	30	0.15	40	JNJ-61186372 - NF (EGFR x c-Met bispecific antibody, normal fucose)

Reference: publication PMC5240640
